These results are taken from patent publication US20210032365A1 (Chugai, published 2021).

The labels stand for the following.
T1: human C1s (human, UniProt P09871 16-688)
T1 construct: also called hC1s; serum-derived human C1s (CompTech)
T1 sequence: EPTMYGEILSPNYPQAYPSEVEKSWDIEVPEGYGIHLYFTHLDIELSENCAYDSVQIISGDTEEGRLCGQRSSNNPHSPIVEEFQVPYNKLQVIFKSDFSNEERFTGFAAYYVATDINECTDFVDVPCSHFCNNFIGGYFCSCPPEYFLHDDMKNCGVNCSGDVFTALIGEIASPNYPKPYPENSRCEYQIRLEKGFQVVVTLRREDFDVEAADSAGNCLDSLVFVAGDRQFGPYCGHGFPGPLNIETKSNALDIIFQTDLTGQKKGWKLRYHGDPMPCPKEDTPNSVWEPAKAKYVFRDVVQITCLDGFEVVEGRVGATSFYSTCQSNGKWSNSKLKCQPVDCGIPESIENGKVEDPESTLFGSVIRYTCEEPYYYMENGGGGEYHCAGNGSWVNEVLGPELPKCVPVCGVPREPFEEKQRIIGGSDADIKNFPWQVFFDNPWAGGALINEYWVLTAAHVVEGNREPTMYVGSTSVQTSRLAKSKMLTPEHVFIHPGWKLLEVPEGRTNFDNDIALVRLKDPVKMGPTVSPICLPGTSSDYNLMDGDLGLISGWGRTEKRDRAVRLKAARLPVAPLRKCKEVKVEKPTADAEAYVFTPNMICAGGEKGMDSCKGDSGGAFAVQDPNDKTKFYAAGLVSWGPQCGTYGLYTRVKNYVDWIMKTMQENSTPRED

T2: human C1s (human, UniProt P09871 16-688)
T2 construct: Analyte in the Biacore assays; also called hC1s; serum-derived human C1s (CompTech)
T2 sequence: T1 sequence

B1: C1_IPN009VH2-SG4GK/IPN93L0028-SK1 (antibody, human IgG4 S228P, kappa, name in Kabat numbering, V domains shown)
VH: EVMLVESGGGLVKPGGSLRLSCAASGFTFSNYAMSWVRQAPGKGLEWVATISSGGSHTYYLDSVKGRFTISRDNSKDTLYLQMNSLRAEDTALYYCARLFTGYAMDYWGQGTLVTVSS
VL: QIVLTQSPATLSLSPGERATLSCTASSSVSSSYLHWYQQKPGKAPKLWIYSTSNLASGVPSRFSGSGSGTDYTLTISSLQPEDFATYYCHQYHRHPPITFGQGTKLEIKR
notes: also called IPN009VH2/IPN93L0028
B2: C1_IPN92H0026-SG4GK/IPN93L0021-SK1 (antibody, human IgG4 S228P, kappa, name in Kabat numbering, V domains shown)
VH: B1 VH with G66H
VL: B1 VL with H95L
notes: also called IPN92H0026/IPN93L0021
B3: C1_IPN009VH2-SG4GK/IPN93L0031-SK1 (antibody, human IgG4 S228P, kappa, name in Kabat numbering, V domains shown)
VH: B1 VH
VL: B1 VL with P96H
notes: also called IPN009VH2/IPN93L0031
B4: C1_IPN009VH2-SG4GK/IPN93L0029-SK1 (antibody, human IgG4 S228P, kappa, name in Kabat numbering, V domains shown)
VH: B1 VH
VL: B1 VL with H95L, P96H
notes: also called IPN009VH2/IPN93L0029
B5: C1_IPN009VH2-SG4GK/IPN93L0030-SK1 (antibody, human IgG4 S228P, kappa, name in Kabat numbering, V domains shown)
VH: B1 VH
VL: B1 VL with H93Y, P96H
notes: also called IPN009VH2/IPN93L0030
B6: C1_IPN92H0033-SG4GK/IPN93L0024-SK1 (antibody, human IgG4 S228P, kappa)
heavy: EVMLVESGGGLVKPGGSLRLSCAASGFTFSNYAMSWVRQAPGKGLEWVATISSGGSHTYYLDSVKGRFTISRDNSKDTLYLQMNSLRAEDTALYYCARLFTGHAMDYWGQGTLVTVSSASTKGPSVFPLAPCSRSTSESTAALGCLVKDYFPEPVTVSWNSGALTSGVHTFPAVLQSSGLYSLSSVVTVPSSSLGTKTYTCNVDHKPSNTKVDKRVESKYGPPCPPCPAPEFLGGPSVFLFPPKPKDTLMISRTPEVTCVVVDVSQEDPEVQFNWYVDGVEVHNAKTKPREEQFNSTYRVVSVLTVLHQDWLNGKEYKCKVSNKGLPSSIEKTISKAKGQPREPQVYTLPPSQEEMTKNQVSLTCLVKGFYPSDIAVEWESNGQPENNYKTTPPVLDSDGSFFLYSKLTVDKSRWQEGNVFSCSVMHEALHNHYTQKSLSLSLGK
light: QIVLTQSPATLSLSPGERATLSCTASSSVSSSYLHWYQQKPGKAPKLWIYSTSNLASGVPSRFSGSGSGTDYTLTISSLQPEDFATYYCHQYYRLHPITFGQGTKLEIKRTVAAPSVFIFPPSDEQLKSGTASVVCLLNNFYPREAKVQWKVDNALQSGNSQESVTEQDSKDSTYSLSSTLTLSKADYEKHKVYACEVTHQGLSSPVTKSFNRGEC
notes: also called IPN92H0033/IPN93L0024
B7: C1_IPN92H0288-SG4GK/IPN93L0212-SK1 (antibody, human IgG4 S228P, kappa, name in Kabat numbering, V domains shown)
VH: B1 VH with Y60E, K65D, G102K, Y103H
VL: B1 VL with S28E, S31E, Y33R, H93Y, H95L, P96H
notes: VL substitutions from IPN009VK3, Kabat numbering; also called IPN92H0288/IPN93L0212

Substitutions are numbered along the chain they refer to.

The target of the first assay is T1, human C1s. Nature of the assay: SPR, Ab captured; pH 5.8, 3 uM Ca. As for the experimental part: (§1) All variants were transiently expressed and purified by the method described above. The binding affinity of each histidine-substituted variant at pH 7.4 and pH 5.8 was determined at 37 degrees C. using Biacore T200 instrument (GE Healthcare). Recombinant Protein A/G (Pierce) was immobilized onto all flow cells of a CM4 sensor chip using an amine coupling kit (GE Healthcare). Antibodies and analytes were prepared in 7(+) buffer (20 mM ACES, 150 mM NaCl, 1.2 mM CaCl2, 0.05% Tween 20, 0.005% NaN3, pH 7.4), 5(+) buffer (20 mM ACES, 150 mM NaCl, 1.2 mM CaCl2, 0.05% Tween 20, 0.005% NaN3, pH 5.8), or 5(−) buffer (20 mM ACES, 150 mM NaCl, 3 micro M CaCl2, 0.05% Tween 20, 0.005% NaN3, pH 5.8). Each antibody was captured onto the sensor surface by protein A/G. Antibody capture levels were aimed at 200 resonance unit (RU). Serum-derived human C1s (CompTech) or recombinant C1s prepared in EXAMPLE 1 was injected at 50 nM, followed by dissociation. The sensor surface was regenerated in each cycle with 10 mM Glycine-HCl, pH 1.5. […] The ratio of KD 5.8+ to KD 7.4+(“KD 5+/7+”) and that of KD 5.8− to KD 7.4+(“KD 5−/7+”) were calculated. When the KD 5+/7+ or KD 5−/7+ of a variant is larger than that of the parent antibody IPN009VH2-SG4GK/IPN009VK3-SK1, that variant is considered to be “pH”- or “pH and Ca”-dependent, respectively. When binding response in 5(+) buffer and/or in 5(−) buffer of a variant is much lower than that of IPN09VH2/IPN009VK3, that variant is also considered as “pH”- and/or “pH and Ca”-dependent. Therefore, such mutations are effective to generate “pH”- and/or “pH and Ca”-dependent antibody. To further enhance “pH” and/or “pH and Ca” dependency, a combination of histidine mutations was conducted. Antibodies with combinations of histidine mutations were evaluated using Biacore by the method described above.
In general terms: SPR reads the build-up and loss of mass on a sensor chip optically.
The Kd is the equilibrium constant for the complex coming apart. What is called koff is a measure of how fast the partners let go of each other. The term kon denotes the rate constant with which the complex forms. For the molecule B1, the Kd was determined as 6.66 nM, the koff stood at 0.00351 s⁻¹ and the kon came to 528000 M⁻¹ s⁻¹.

On to B2, for which the Kd amounted to 8.12 nM, the koff worked out at 0.17 s⁻¹ and the kon amounted to 2.1e+07 M⁻¹ s⁻¹.

In the case of B3, the koff was 0.00352 s⁻¹ and the kon came to 711 M⁻¹ s⁻¹.

Turning to B4, the Kd is 5.54 nM, the koff is 0.00296 s⁻¹ and the kon is 534000 M⁻¹ s⁻¹.

Turning to B5, the Kd is 1.3 nM, the koff is 0.00577 s⁻¹ and the kon came to 4.42e+06 M⁻¹ s⁻¹.

The next assay deals with T1, human C1s. Put plainly: SPR, Ab captured; pH 7.4, 1.2 mM Ca. As for the experimental part: as §1
Consider B1, for which the Kd is 13.9 nM, the koff came to 0.00476 s⁻¹ and the kon was determined as 343000 M⁻¹ s⁻¹.

Consider B2, for which the Kd came out at 0.804 nM, the koff is 0.000472 s⁻¹ and the kon turned out to be 587000 M⁻¹ s⁻¹.

In the case of B6, the koff came out at 0.000776 s⁻¹ and the on-rate (kon) was 268000 M⁻¹ s⁻¹.

In the case of B3, the koff came to 8e-06 s⁻¹ and the kon stood at 47600 M⁻¹ s⁻¹.

For the molecule B4, the Kd worked out at 18.2 nM, the koff came out at 0.00897 s⁻¹ and the association rate constant (kon) stood at 494000 M⁻¹ s⁻¹.

With B5, the Kd stood at 25.5 nM, the koff is 0.0156 s⁻¹ and the kon turned out to be 612000 M⁻¹ s⁻¹.

The next assay addresses T1, human C1s. Put plainly: SPR, Ab captured; pH 5.8, 1.2 mM Ca. As for the experimental part: as §1
For B1, the Kd was 14.1 nM, the koff came to 0.00751 s⁻¹ and the kon is 534000 M⁻¹ s⁻¹.

Take B2: the Kd came to 1.95 nM, the koff was determined as 0.00149 s⁻¹ and the kon was found to be 763000 M⁻¹ s⁻¹.

As for B6, the koff stood at 0.0045 s⁻¹ and the kon was found to be 519000 M⁻¹ s⁻¹.

For B3, the koff turned out to be 0.0127 s⁻¹ and the kon amounted to 532000 M⁻¹ s⁻¹.

For the molecule B4, the Kd came to 15.5 nM, the koff worked out at 0.00857 s⁻¹ and the kon is 553000 M⁻¹ s⁻¹.

On to B5, for which the Kd worked out at 45.6 nM, the koff was found to be 0.0222 s⁻¹ and the kon was 487000 M⁻¹ s⁻¹.

A further assay concerns the target T1, human C1s. Nature of the assay: SPR, Ab captured; pH 7.4, 1.2 mM Ca. This is another data set of the same source. How it is done: Each antibody was captured onto the sensor surface by protein A/G. Antibody capture levels were aimed at 200 resonance unit (RU). Serum-derived human C1s (CompTech) or recombinant C1s prepared in EXAMPLE 1 was injected at 50 nM, followed by dissociation. The sensor surface was regenerated in each cycle with 10 mM Glycine-HCl, pH 1.5. […] The ratio of KD 5.8+ to KD 7.4+(“KD 5+/7+”) and that of KD 5.8− to KD 7.4+(“KD 5−/7+”) were calculated. When the KD 5+/7+ or KD 5−/7+ of a variant is larger than that of the parent antibody IPN009VH2-SG4GK/IPN009VK3-SK1, that variant is considered to be “pH”- or “pH and Ca”-dependent, respectively. When binding response in 5(+) buffer and/or in 5(−) buffer of a variant is much lower than that of IPN09VH2/IPN009VK3, that variant is also considered as “pH”- and/or “pH and Ca”-dependent. Therefore, such mutations are effective to generate “pH”- and/or “pH and Ca”-dependent antibody. To further enhance “pH” and/or “pH and Ca” dependency, a combination of histidine mutations was conducted. Antibodies with combinations of histidine mutations were evaluated using Biacore by the method described above.
C1_1IPN92H0033 (SEQ ID NO: 17)-SG4GK/IPN93L0024 (SEQ ID NO: 18)-SK1 (IPN92H0033/IPN93L0024) was selected for further optimization. Histidine, Lysine, Arginine, aspartic acid, glutamic acid, and glutamine scanning was conducted for CDRs and certain positions of FRs of IPN92H0033/IPN93L0024. Variants with a mutation were generated and purified, and evaluated using Biacore by the method mentioned above. All variants were evaluated using Biacore as mentioned above. Mutations that improved “pH” and/or “pH and Ca” dependency were selected for the combination.
Regarding B6, the koff is 0.000776 s⁻¹ and the kon is 268000 M⁻¹ s⁻¹.

The next assay has as its target T1, human C1s. Nature of the assay: SPR; KD pH 5.8 3 uM Ca / KD pH 7.4 1.2 mM Ca. As for the experimental part:
as §1
Regarding B1, the “KD 5(-)/7(+)” value is 0.5.

As for B2, the “KD 5(-)/7(+)” value worked out at 10.1.

B6: the “KD 5(-)/7(+)” value is 1.8.

With B3, the “KD 5(-)/7(+)” value turned out to be 29500.

With B4, the “KD 5(-)/7(+)” value stood at 0.3.

Consider B5, for which the “KD 5(-)/7(+)” value was 0.1.

The target of a further assay is T1, human C1s. Nature of the assay: SPR; KD pH 5.8 1.2 mM Ca / KD pH 7.4 1.2 mM Ca. How it is done:
as §1
B1: the “KD 5(+)/7(+)” value was 1.

Regarding B2, the “KD 5(+)/7(+)” value was determined as 2.4.

B6: the “KD 5(+)/7(+)” value was 3.

Take B3: the “KD 5(+)/7(+)” value was determined as 142.

Consider B4, for which the “KD 5(+)/7(+)” value is 0.9.

Consider B5, for which the “KD 5(+)/7(+)” value worked out at 1.8.

Another assay addresses T2, human C1s. Nature of the assay: SPR; KD at pH 5.8 (3 uM Ca) over KD at pH 7.4 (1.2 mM Ca). The gist of the method:
(§2)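 Antibody captured on protein A/G (~200 RU) on Biacore T200 at 37C; serum-derived or recombinant human C1s injected at 50 nM, then dissociation. KD measured at pH 7.4 with 1.2 mM Ca and at pH 5.8 with 1.2 mM or 3 uM Ca; KD ratios pH 5.8/pH 7.4 calculated.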
Turning to B7, the “KD 5(-)/7(+)” value came out at 3.75.

The target of a further assay is T2, human C1s. Nature of the assay: SPR; KD at pH 5.8 (1.2 mM Ca) over KD at pH 7.4 (1.2 mM Ca). The gist of the method: as §2
Take B7: the “KD 5(+)/7(+)” value stood at 11.6.

The target in another assay is T2, human C1s. Nature of the assay: SPR (Biacore T200, 37C), Ab captured on protein A/G; pH 5.8, 3 uM Ca. The procedure, abridged:
as §2
On to B7, for which the Kd is 6.79 nM, the koff was found to be 0.00533 s⁻¹ and the kon is 784000 M⁻¹ s⁻¹.

The target in the next assay is T2, human C1s. Put plainly: SPR (Biacore T200, 37C), Ab captured on protein A/G; pH 5.8, 1.2 mM Ca. The gist of the method:
as §2
As for B7, the Kd was found to be 21 nM, the koff turned out to be 0.0198 s⁻¹ and the kon is 945000 M⁻¹ s⁻¹.
